Biological target: purified recombinant GRP78 protein (GRP78-His) (human) (UniProt P11021)
Test: ITC

Sequence of HBV particles (P03146 whole entry, looked up): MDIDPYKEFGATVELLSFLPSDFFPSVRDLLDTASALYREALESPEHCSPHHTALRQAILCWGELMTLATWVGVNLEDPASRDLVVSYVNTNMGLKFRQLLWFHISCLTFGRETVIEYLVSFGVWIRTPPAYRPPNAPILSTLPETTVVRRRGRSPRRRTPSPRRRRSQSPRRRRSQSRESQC
Sequence of HBV particles (P03138 whole entry, looked up): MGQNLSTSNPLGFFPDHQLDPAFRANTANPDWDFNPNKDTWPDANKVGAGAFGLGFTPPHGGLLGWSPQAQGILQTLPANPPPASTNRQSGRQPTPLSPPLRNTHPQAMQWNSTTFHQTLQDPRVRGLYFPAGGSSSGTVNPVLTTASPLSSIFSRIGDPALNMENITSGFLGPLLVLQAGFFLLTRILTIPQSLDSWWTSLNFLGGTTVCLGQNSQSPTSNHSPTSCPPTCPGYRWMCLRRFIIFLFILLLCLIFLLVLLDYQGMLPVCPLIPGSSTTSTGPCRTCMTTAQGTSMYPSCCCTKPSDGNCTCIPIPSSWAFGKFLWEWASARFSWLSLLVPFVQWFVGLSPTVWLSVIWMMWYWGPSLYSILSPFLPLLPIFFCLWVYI
Sequence of purified recombinant GRP78 protein (GRP78-His) (human) (P11021 19-654): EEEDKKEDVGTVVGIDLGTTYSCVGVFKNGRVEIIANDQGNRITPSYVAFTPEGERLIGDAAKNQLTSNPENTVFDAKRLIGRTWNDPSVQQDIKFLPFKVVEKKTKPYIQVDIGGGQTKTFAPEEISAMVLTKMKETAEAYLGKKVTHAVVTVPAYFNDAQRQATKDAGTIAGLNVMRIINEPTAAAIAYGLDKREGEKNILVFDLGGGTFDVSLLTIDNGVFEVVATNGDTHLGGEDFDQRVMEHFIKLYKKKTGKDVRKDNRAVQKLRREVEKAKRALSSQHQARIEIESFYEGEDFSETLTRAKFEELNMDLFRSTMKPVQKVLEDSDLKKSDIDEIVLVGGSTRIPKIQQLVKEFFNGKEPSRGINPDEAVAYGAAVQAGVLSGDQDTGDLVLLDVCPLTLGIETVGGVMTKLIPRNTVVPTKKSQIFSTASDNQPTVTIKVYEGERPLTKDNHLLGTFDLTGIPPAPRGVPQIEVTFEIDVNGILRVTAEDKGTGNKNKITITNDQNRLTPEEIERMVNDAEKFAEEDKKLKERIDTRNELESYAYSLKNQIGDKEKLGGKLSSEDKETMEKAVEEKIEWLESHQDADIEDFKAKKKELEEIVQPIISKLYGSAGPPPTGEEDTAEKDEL

HBV particles (from UniProt P03138;P03146) (complex)
Kd: 75.6 µM

— publication doi:10.1101/2021.12.08.471876
